From publication PMC4077652, “An Unstable Th Epitope of P. falciparum Fosters Central Memory T Cells and Anti-CS Antibody Responses” (PLoS ONE, 2014)

B1: unnamed (parent)
chain 1: QNSLSTEWSPCSVT
chain 2: not shown
chain 3: not shown

Variants of: B1
Assay: binding inhibition (competition) assay with biotin-labeled HA 306-318
Settings: peptides tested at 0 to 100 µM, read off a plot

First: chain 1 S12A
Second: chain 1 T6A
The IC50 of the first is 1.6-fold lower: 800 nM for the first, 1300 nM for the second.

First: chain 1 S3A
Second: chain 1 V13A
The IC50 of the first is 2.2-fold higher: 1100 nM for the first, 500 nM for the second. The second is the more potent here.

chain 1 T14A and chain 1 C11A are the same in IC50: 800 nM for the first, 800 nM for the second.

First: chain 1 Q1A
Second: chain 1 N2A
The IC50 of the first is 2.2-fold lower: 1200 nM for the first, 2700 nM for the second. The first is the more potent here.

Compared with chain 1 S5A, chain 1 E7A is 3.7-fold higher in IC50: 950 nM for the first, 3500 nM for the second. The first is the more potent here.

First: chain 1 P10A
Second: chain 1 W8A
The IC50 of the first is 5.2-fold higher: 7800 nM for the first, 1500 nM for the second.
